pIC50: −log10 of the molar value.
Experiments:
[1] = target: rat brain synaptosomes (sites that bind 125I-charybdotoxin); experiment: radioligand binding
[2] = target: rat brain synaptosomes (sites that bind 125I-apamin); experiment: radioligand binding; competition with 125I-apamin on rat brain synaptosomes
[3] = target: human Kv1.3 channel (human) (UniProt P22001)
Sequence of UniProt P22001 (P22001 whole entry): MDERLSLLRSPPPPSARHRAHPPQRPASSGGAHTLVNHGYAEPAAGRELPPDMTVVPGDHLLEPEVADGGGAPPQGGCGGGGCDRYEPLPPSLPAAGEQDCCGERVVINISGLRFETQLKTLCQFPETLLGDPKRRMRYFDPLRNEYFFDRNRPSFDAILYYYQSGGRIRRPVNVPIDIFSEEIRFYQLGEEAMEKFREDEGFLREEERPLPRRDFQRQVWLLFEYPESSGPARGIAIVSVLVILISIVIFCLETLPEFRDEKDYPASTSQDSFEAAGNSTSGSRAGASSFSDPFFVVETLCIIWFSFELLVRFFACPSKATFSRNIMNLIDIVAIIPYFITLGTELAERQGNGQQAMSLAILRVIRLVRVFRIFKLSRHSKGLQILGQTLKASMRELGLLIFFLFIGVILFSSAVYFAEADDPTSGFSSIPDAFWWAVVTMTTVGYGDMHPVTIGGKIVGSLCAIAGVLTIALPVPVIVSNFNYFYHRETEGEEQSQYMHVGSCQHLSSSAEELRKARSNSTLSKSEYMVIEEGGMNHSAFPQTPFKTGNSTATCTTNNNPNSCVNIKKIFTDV

Substance | pIC50 [1] | pIC50 [2] | decrease in Kv1.3 maximum current, patch-clamp (voltage clamp, whole-cell configuration) on HEK293T cells [3]
MTX1 (peptide) | 8.30 | 8.77 | 
Tb11a (peptide) |  |  | 50%

Source: paper PMC11861921
